From US20090092595A1, “Suppression of sPLA2-integrin binding for treating an inflammatory condition” (REGENTS OF THE UNIVERSITY OF CALIFORNIA, priority 2007, published 2009)

Molecular target: T1, integrin αvβ3 on β3-CHO cells (UniProt A0A9J7JSN3+P05106)
T1 construct: expressed in transfected cells; host or cells: CHO
T1 sequence (P05106 27-788): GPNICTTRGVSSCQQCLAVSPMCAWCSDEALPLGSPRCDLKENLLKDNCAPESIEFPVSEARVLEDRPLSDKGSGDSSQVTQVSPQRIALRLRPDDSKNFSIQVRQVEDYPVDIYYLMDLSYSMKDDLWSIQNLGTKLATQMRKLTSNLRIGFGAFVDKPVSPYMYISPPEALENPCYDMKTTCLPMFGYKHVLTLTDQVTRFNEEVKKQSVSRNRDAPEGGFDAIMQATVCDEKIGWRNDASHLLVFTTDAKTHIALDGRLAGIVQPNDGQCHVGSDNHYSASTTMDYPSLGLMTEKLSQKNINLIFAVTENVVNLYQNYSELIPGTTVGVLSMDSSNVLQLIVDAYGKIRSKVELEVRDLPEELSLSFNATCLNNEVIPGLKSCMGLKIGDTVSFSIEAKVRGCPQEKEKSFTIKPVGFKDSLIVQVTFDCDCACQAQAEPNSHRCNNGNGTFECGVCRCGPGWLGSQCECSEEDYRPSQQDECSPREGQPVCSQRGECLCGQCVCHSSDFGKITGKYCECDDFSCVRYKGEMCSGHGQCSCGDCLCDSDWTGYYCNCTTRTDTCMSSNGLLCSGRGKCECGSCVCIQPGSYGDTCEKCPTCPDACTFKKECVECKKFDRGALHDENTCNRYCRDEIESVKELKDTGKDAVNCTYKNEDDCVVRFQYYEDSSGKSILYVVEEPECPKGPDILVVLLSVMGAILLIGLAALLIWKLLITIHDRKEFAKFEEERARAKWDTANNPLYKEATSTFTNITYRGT
T1 sequence (A0A9J7JSN3 31-1043): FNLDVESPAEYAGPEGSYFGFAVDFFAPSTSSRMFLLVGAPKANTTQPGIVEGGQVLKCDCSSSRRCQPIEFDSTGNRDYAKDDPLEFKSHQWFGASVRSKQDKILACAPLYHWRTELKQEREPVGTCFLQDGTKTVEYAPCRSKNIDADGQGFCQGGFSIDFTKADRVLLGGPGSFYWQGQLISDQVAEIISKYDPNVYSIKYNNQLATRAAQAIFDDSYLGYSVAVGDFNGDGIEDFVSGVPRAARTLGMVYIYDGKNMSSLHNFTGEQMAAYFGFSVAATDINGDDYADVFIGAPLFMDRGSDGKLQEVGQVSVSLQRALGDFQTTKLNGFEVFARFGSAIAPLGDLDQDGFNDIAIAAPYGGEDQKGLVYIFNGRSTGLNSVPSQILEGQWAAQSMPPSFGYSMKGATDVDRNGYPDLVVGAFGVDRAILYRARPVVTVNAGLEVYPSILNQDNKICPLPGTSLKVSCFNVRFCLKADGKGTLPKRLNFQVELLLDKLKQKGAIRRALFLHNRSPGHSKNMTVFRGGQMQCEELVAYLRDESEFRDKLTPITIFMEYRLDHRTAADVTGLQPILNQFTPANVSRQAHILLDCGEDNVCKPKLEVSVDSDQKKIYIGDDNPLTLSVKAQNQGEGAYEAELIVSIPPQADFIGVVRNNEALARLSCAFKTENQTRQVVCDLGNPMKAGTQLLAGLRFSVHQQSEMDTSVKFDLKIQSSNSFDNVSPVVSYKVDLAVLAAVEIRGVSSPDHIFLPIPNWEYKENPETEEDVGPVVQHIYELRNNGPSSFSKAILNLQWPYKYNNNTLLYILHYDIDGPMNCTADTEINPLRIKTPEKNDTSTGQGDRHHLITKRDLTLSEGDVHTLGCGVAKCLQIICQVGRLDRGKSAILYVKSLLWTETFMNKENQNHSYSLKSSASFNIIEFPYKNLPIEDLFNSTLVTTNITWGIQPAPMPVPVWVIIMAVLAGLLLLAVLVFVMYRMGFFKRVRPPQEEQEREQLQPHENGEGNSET
Test: Adhesion of cells expressing recombinant αvβ3 (β3-CHO, β3-745) to immobilized sPLA2-IIA
Format: cell-based, human
Conditions: compared with mock-transfected cells
Description: FIG. 1. sPLA2-IIA binding to integrin αvβ3. a) Cell adhesion to sPLA2-IIA in an αvβ3- and proteoglycans-dependent manner. Wells of a 96-well microtiter plate were coated with sPLA2-IIA at indicated coating concentrations. Remaining protein-binding sites were blocked with BSA. CHO cells expressing recombinant αvβ3 (β3-CHO), mock-transfected CHO cells, proteoglycans-deficient CHO cell variant (pgs745), expressing recombinant αvβ3 (β3-745), and mock-transfected pgs745 cells (10^5 cells per well in 100 μl Tyrodes-HEPES with 1 mM MgCl2) were added to the wells. After incubating for 1 h at 37° C., unbound cells were removed by gentle rinsing and bound cells were quantified using endogenous phosphatase activity (Prater, C. A. et al., J. Cell Biol., 112:1031-1040 (1991)). Data is shown as means+/−SEM of triplicate experiments. b) Effect of anti-(33 mAb 7E3 on adhesion of β3-CHO cells to immobilized sPLA2-IIA. […] Bound FITC (FL1) and PE (FL2) were quantified in flow cytometry. […] Bound αvβ3 was detected using peroxidase-conjugated anti-6His antibody. Bound peroxidase activity was measured. […]

B1: wt sPLA2-IIA: Secretory phospholipase A2 group IIA, wild type, recombinant from bacteria BL21, refolded (protein)
chain: NLVNFHRMIKLTTGKEAALSYGFYGCHCGVGGRGSPKDATDRCCVTHDCCYKRLEKRGCGTKFLSYKFSNSGSRITCAKQDSCRSQLCECDKAAATCFARNKTTYNKKYQYYSNKHCRGSTPRC
modifications: left off: small tags and cut ends
- adhesion of β3-CHO and β3-745 cells to immobilized sPLA2-IIA: much higher level than mock-transfected CHO or 745 cells
